Reference: the supplement of paper PMC7877785
± gives the uncertainty stated by the source.

Experiment: self-splicing fitness, log relative to wild type (ln ratio); higher = more splicing; Tetrahymena group I intron in knt gene, E. coli kanamycin selection, DiMSum; sequences stand for … in CUCUCU…GGAGGGAAAAGUUAUCAGGCAUGCACCUGGUAGCUAGUCUUUAAACCAAUAGAUUGCAUCGGUUUAAAAGGCAAGACCGUCAAAUUGCGGGAAAGGGGUCAACAGCCGUUCAGUACCAAGUCUCAGGGGAAACUUUGAGAUGGCCUUGCAAAGGGUAUGGUAAUAAGCUGACGGACAUGGUCCUAACCACGCAGCCAAGUCCUAAGUCAACAGAUCUUCUGUUGAUAUGGAUGCAGUUCACAGACUAAAUGUCGGUCGGGGAAGAUGUAUUCUUCUCAUAAGAUAUAGUCGGACCUCUCCUUAAUGGGAGCUAGCGGAUGAAGUGAUGCAACACUGGAGCCGCUGGGAACUAAUUUGUAUGCGAAAGUAUAUUGAUUAGUUUUGGAGUACUCGUGGUCG
How it was run: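 Pooled colonies went to amplicon sequencing on an Illumina HiSeq 2500 after six replicate transformations. The plates were LB agar with 100 μg/mL carbenicillin, 50 μM IPTG and 0.2% rhamnose, with or without 25 μg/mL kanamycin, incubated overnight at 37°C or 30°C. The E. coli BL21(DE3) library had all eight P1ex-region intron nucleotides randomised, the intron placed in the knt kanamycin-resistance gene on pET-22b(+). DiMSum fitness is the error-weighted combination of replicate fold changes, kanamycin against none, normalised to wild type.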

Row | Sequence | self-splicing fitness (ln) (30 °C) | self-splicing fitness (ln) (37 °C)
1 | UGUCAGCAAUAUUACGGGGA | -1.32 ± 0.061 | -0.476 ± 0.07
2 | GGACAGCAAUAUUACGGGUA | -2.33 ± 0.11 | -1.67 ± 0.093
3 | AUCGAGCAAUAUUACGCUUU | -2.98 ± 0.15 | -2.29 ± 0.18
4 | GGACAGCAAUAUUACGCAUU | -0.834 ± 0.062 | -0.622 ± 0.078
5 | UAAAAGCAAUAUUACGUAGC | -3.26 ± 0.19 | -2.72 ± 0.18
6 | CCGCAGCAAUAUUACGCGGG | -4.07 ± 0.14 | -3.74 ± 0.12
7 | CAGAAGCAAUAUUACGCAGC | -3.43 ± 0.23 | -2.35 ± 0.24
8 | CAAAAGCAAUAUUACGCCAA | -3.4 ± 0.36 | -2.1 ± 0.24
9 | GACCAGCAAUAUUACGCAAG | -1.81 ± 0.089 | -1.15 ± 0.11
10 | CCUUAGCAAUAUUACGGGUU |  | -1.5 ± 0.21
11 | GGGCAGCAAUAUUACGGUUC | -1.53 ± 0.11 | -1.93 ± 0.13
12 | UUCCAGCAAUAUUACGCCUG | -3.5 ± 0.47 | -2.35 ± 0.39
13 | ACAUAGCAAUAUUACGAAUA | -2.06 ± 0.28 | -0.539 ± 0.2
14 | AUCUAGCAAUAUUACGCAGG | -2.97 ± 0.3 | -1.07 ± 0.18
15 | CGUCAGCAAUAUUACGAUUU | -1.01 ± 0.06 | -1.11 ± 0.061
16 | CUCCAGCAAUAUUACGAAUU | -3.27 ± 0.18 | -2.18 ± 0.2
17 | CCGUAGCAAUAUUACGCUGU | -3.79 ± 0.25 | -3.17 ± 0.26
18 | ACCAAGCAAUAUUACGCUCA | -0.49 ± 0.098 | -0.055 ± 0.11
19 | GGUCAGCAAUAUUACGGAUC | -2.95 ± 0.22 | -0.0513 ± 0.21
20 | GUGUAGCAAUAUUACGACCU | -0.216 ± 0.27 | 0.601 ± 0.24
21 | UGCAAGCAAUAUUACGUACG | -0.89 ± 0.12 | -0.478 ± 0.1

Row | Sequence | self-splicing fitness (ln) (30 °C) | self-splicing fitness (ln) (37 °C)
22 | AAGUAGCAAUAUUACGUAUC | -2.36 ± 0.14 | -1.15 ± 0.11
23 | GGGAAGCAAUAUUACGCGCG | -0.57 ± 0.13 | -0.552 ± 0.14
24 | AAUAAGCAAUAUUACGCCUA | 0.0474 ± 0.09 | -0.183 ± 0.098
25 | GCCGAGCAAUAUUACGGAAC | -1.82 ± 0.12 | -0.538 ± 0.12
26 | ACUCAGCAAUAUUACGGCCC | -1.32 ± 0.15 | -0.343 ± 0.19
27 | AACUAGCAAUAUUACGCGCU | -1.79 ± 0.12 | -0.454 ± 0.12
28 | AAAUAGCAAUAUUACGUGUA | -2.49 ± 0.091 | -1.44 ± 0.09
29 | GUUAAGCAAUAUUACGUUUG | -2.55 ± 0.12 | -1.86 ± 0.17
30 | UCGAAGCAAUAUUACGGGAC | -3.19 ± 0.47 | -3.17 ± 0.33
31 | UAACAGCAAUAUUACGUGAC | -3.68 ± 0.2 | -2.46 ± 0.17
32 | UACAAGCAAUAUUACGCGGG | -2.43 ± 0.086 | -1.25 ± 0.099
33 | CCCCAGCAAUAUUACGCGAG | -3.18 ± 0.15 | -3.14 ± 0.31
34 | AAGGAGCAAUAUUACGGGGC | -3.81 ± 0.22 | -2.34 ± 0.16
35 | UCGCAGCAAUAUUACGGGGC | -2.52 ± 0.23 | -2.63 ± 0.27
36 | AUUAAGCAAUAUUACGAGUG | -2.42 ± 0.1 | -2.37 ± 0.14
37 | CUAGAGCAAUAUUACGUUAU | -3.29 ± 0.16 | -2.3 ± 0.23
38 | CUCGAGCAAUAUUACGCAUC | -3.3 ± 0.22 | -2.49 ± 0.3
39 | AAUAAGCAAUAUUACGAUAU | -1.71 ± 0.11 | -0.747 ± 0.13
40 | CAUCAGCAAUAUUACGAUUC | -1.62 ± 0.071 | -0.269 ± 0.073
41 | CCACAGCAAUAUUACGUGGG | -3.56 ± 0.14 | -3.13 ± 0.18
42 | CAAGAGCAAUAUUACGAAUA | -2.52 ± 0.34 | -2.28 ± 0.36
